This is an account of results in patent US20160159906A1 (Genentech, published 2016).

The target of assay [1] is T1, human CD79b (human, UniProt P40259 29-229).
T1 sequence: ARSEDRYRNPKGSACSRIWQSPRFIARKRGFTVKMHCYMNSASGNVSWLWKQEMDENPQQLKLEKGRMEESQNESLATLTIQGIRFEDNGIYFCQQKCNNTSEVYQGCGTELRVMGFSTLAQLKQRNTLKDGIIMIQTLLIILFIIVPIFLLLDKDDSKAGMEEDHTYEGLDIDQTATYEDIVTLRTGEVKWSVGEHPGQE
As to the kind of experiment: cell-based or functional assay.

For assay [2], the target named is T1, human CD79b. Briefly: FACS on BJAB cells (FIG. 3B); bispecific bisfab, monovalent for CD79b. The procedure: (§1) BJAB cells were incubated with anti-CD79b antibody (bivalent, dual arm antibody) or anti-CD79b/CD3 TDB antibody as indicated for 30 minutes on ice. At the end of the incubation, cells were washed with ice cold FACS buffer (lx PBS, 2% BSA, 2mM EDTA), followed by incubation with PE-labeled mouse anti-human IgG antibody (BD bioscience #555787). Flow cytometry analysis was done on a BD LSR analyzer. Antibody binding was expressed as Mean Fluorescence Intensity (MFI) of PE fluorophore. A: The bivalent binding affinity of anti-CD79b clone 2F2 comparing to monovalent binding affinity of anti-CD79b clones 2F2, SN8v28, and SN8new (as K&H TDBs); B: bivalent binding affinity of anti-CD79b clones CD79b.F6 and CD79b.A7 comparing to monovalent binding of anti-CD79b clones CD79b.F6, CD79b.A7, and SN8v28 (as bisfab or K&H TDBs); C: bivalent binding affinity of anti-CD79b clone CD79b.A7.v14 comparing to monovalent binding of anti-CD79b clone CD79b.A7.v14 (as K&H TDBs).
(§2) The monovalent and bivalent anti-CD79b antibody binding affinity was also evaluated in order to better understand the contribution, if any, to B cell killing activity. Binding affinity of dual arm, bivalent anti-CD79b antibodies and bispecific anti-CD79b/ CD3 antibodies using BJAB cells were also analyzed. […]

Assay [3] has as its target T1, human CD79b. As to the kind of experiment: FACS on BJAB cells, PE-labeled mouse anti-human IgG detection, MFI [panel A]. As to the method:
as §1, §2

The target of assay [4] is T1, human CD79b. As to the kind of experiment: FACS on BJAB-luciferase cells, bivalent binding, PE anti-human IgG. As to the method:
At the end of the incubation, cells were washed with ice cold FACS buffer (1× PBS, 2% BSA, 2 mM EDTA), followed by incubation with PE-labeled mouse anti-human IgG antibody (BD bioscience #555787). Flow cytometry analysis was done on a BD LSR analyzer. Bivalent binding was expressed as Mean Fluorescence Intensity (MFI) of PE fluorophore.

Assay [5] concerns the target T2, CD79b.A7, dual arm, bivalent anti-CD79b antibody.
T2 construct: Mouse hybridoma clone; also called CD79.A7; muCD79b.A7
As to the kind of experiment: FACS on BJAB cells, peptide competition (data not shown).

Assay [6] has as its target T3, human CD79b fused with an Fc domain at the C-terminus (printed at paragraph 314 as Human CD79a fused with an Fc … (human, UniProt P40259 29-159)).
T3 construct: also called CD79b immobilized at a low density; Fc-tagged ECD of human CD79b; not shown: Fc domain at the C-terminus
T3 sequence: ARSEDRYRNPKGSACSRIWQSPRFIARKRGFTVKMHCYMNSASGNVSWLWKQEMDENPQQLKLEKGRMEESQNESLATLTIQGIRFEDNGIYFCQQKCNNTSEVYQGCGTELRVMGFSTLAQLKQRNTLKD
As to the kind of experiment: Biacore T100 SPR, bivalent IgG over CD79b-Fc immobilized at low density; apparent affinity. As to the method:
The binding affinity of the antibodies in this section was determined by BIAcore™ T100. Briefly, BIAcore™ research grade CM5 chips were activated with 1-ethyl-3-(3-dimethylaminopropyl) carbodiimide (EDC) and N-hydroxysuccinimide (NHS) reagents according to the supplier's instructions. Human […] fused with an Fc domain at the C-terminus was coupled to the chips. To achieve more monovalent binding events, low density of ˜12 response units (RU) was immobilized in each flow cell. For measuring the apparent affinity of the antibodies, ˜370 RU of the antigen was immobilized. Unreacted coupling groups were blocked with 1M ethanolamine. For kinetics measurements, three-fold serial dilutions of antibody was injected in PBS-T buffer (0.05% surfactant P20 in PBS) at 25° C. with a flow rate of 30 μl/min. 10 mM glycine, pH 1.7 was used as regeneration buffer at 30 ul/min flow rate for 1 minute. Association rates (kₒₙ) and dissociation rates (koff) were calculated using a 1:1 Langmuir binding model (BIAcore™ T100 Evaluation Software version 2.0). The equilibrium dissociation constant (Kd) was calculated as the ratio koff/kₒₙ.
Thus additional humanized variants were made to evaluate the contribution of mouse framework vernier positions towards binding. Six additional light chains (VL1: CDRs graft+(Y36L), VL2: CDRs graft+(Y36L+L46C), VL3: CDRs graft+(I2V+Y36L+L46C), VL4: CDRs graft+(Y36L+L46S), VL5: CDRs graft+(I2V+Y36L+L46S), VL6: CDRs graft+(L46S)) and seven additional heavy chains (VH1a: CDRs graft+(A93S), VH1b: CDRs graft+(R71V+A93S), VH1c: CDRs graft+(V67A+I69L+R71V+A93S), VH1d:CDRs graft+(V67A+I69L+R71V+T73K+A93S), VH1e: CDRs graft+(V67A+R71V+A93S), VH1f: CDRs graft+(I69L+R71V+A93S), and VH1g: CDRs graft+(V67A+I69L)) were constructed and combined to generate the variants in Table 2. Based on the affinities of these variants, Y36L and L46C in the light chain appear to be key mouse vernier residues. […] In the heavy chain, V67A, I69L, R71V and A93S also contributed to CD79b binding; however R71V appeared to be the key mouse vernier residues based on this mutational analysis.
For orientation: SPR reads the build-up and loss of mass on a sensor chip optically.

Assay [7] concerns the target T1, human CD79b. As to the kind of experiment: FACS on BJAB cells (FIG. 3C). As to the method:
as §1
Binding affinity of the humanized CD79.A7.v14 of monovalent and bivalent was tested as described above.

T2 sequence (VL, as listed by the source): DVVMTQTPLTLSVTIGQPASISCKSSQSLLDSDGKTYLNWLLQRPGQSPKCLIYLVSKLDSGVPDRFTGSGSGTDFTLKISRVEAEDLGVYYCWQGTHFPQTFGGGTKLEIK

B1: bispecific bisfab anti-CD79b/CD3 (CD79b.A7/UCHT1.v9) (bispecific antibody, V domains shown)
VH 1: QVQLQQPGVELVRPGASVKLSCKASGYTFTTYWMNWVRQRPGQGLDWIGMIDPSDSETHYNQMFKDKATLTVDKSSSTAYIQLNSLTSEDSAVYYCSRSLAFWGQGTLVTVSA
VL 1: not shown
VH 2: EVQLVESGGGLVQPGGSLRLSCAASGYSFTGYTMNWVRQAPGKDLEWVALINPYKGVSTYNQKFKDRFTISVDKSKNTAYLQMNSLRAEDTAVYYCARSGYYGDSDWYFDVWGQGTLVTVSS
VL 2: DIQMTQSPSSLSASVGDRVTITCRASQDIRNYLNWYQQKPGKAPKLLIYYTSRLESGVPSRFSGSGSGTDYTLTISSLQPEDFATYYCQQGNTLPWTFGQGTKLELK
notes: Bisfab format; constant parts and the link between the two Fabs are not described; also called CD79b.A7/UHT1.v9
Broadly, the EC50 is the concentration at which the effect is half-maximal. A low value points to a more potent agent. Take B1: the “endogenous B cell killing EC50” value in the assay with human CD79b [1] stood at 0.012 µg/mL. In the assay with human CD79b [2], this molecule yielded an EC50 of 1.4 µg/mL.

B2: SN8.new/UCHT1.v9 bispecific K&H antibody (bispecific antibody, V domains shown)
VH 1: EVQLVESGGGLVQPGGSLRLSCAASGYTFSSYWIEWVRQAPGKGLEWVGEILPGGGDTNYNEIFKGRFTISADTSKNTAYLQMNSLRAEDTAVYYCTRRVPIRLDYWGQGTLVTVSS
VL 1: DIQMTQSPSSLSASVGDRVTITCKASQSVDYDGDSFLNWYQQKPGKAPKLLIYAARKLGRGVPSRFSGSGSGTDFTLTISSLQPEDFATYYCQQSNEDPLTFGQGTKVEIK
VH 2: EVQLVESGGGLVQPGGSLRLSCAASGYSFTGYTMNWVRQAPGKDLEWVALINPYKGVSTYNQKFKDRFTISVDKSKNTAYLQMNSLRAEDTAVYYCARSGYYGDSDWYFDVWGQGTLVTVSS
VL 2: DIQMTQSPSSLSASVGDRVTITCRASQDIRNYLNWYQQKPGKAPKLLIYYTSRLESGVPSRFSGSGSGTDYTLTISSLQPEDFATYYCQQGNTLPWTFGQGTKLELK
Broadly, the EC50 (read off the curve) is the concentration at which the effect is half-maximal. On to B2, for which the “EC50 (read off the curve)” value in the assay with human CD79b [3] was roughly 1 µg/mL.

B3: chCD79b.A7 (antibody, V domains shown)
VH: QVQLQQPGVELVRPGASVKLSCKASGYTFTTYWMNWVRQRPGQGLDWIGMIDPSDSETHYNQMFKDKATLTVDKSSSTAYIQLNSLTSEDSAVYYCSRSLAFWGQGTLVTVSA
VL: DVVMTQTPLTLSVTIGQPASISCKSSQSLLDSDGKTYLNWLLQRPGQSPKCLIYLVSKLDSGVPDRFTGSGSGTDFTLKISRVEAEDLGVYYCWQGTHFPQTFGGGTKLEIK
notes: Chimeric form of CD79b.A7 by its prefix ch
In turn, B3 came in with an EC50 with human CD79b [4] of 0.124 µg/mL.

B4: Peptide 1, 21-amino acid peptide ARSEDRYRNPKGSACSRIWQS that corresponds to the NH2 termini of huCD79b (peptide)
peptide: ARSEDRYRNPKGSACSRIWQS
For B4, the binding result in assay [5] is recorded as “binds”.

B5: CD79b.A7.v14 (antibody, V domains shown)
VH: EVQLVQSGAEVKKPGASVKVSCKASGYTFTTYWMNWVRQAPGQGLEWIGMIDPSDSETHYNQMFKDRATLTVDTSTSTAYLELSSLRSEDTAVYYCSRSLAFWGQGTLVTVSS
VL: DIVMTQTPLSLPVTPGQPASISCKSSQSLLDSDGKTYLNWLLQKPGQSPQSLIYLVSKLDSGVPDRFSGSGSGTDFTLKISRVEAEDVGVYYCWQGTHFPQTFGQGTKVEIK
notes: VH1c + VL4; bivalent, dual arm IgG; also called huCD79b.A7.v14; CD79.A7.v14
Regarding B5, in assay [6], the Kd amounted to 5 nM. Moreover, the EC50 was determined as 0.068 µg/mL with human CD79b [4] and 0.0468 µg/mL in the assay with human CD79b [7].

B6: monovalent CD79.A7.v14 in the K&H TDB format CD79.A7.v14/40G5c (bispecific antibody, V domains shown)
VH 1: EVQLVQSGAEVKKPGASVKVSCKASGYTFTTYWMNWVRQAPGQGLEWIGMIDPSDSETHYNQMFKDRATLTVDTSTSTAYLELSSLRSEDTAVYYCSRSLAFWGQGTLVTVSS
VL 1: DIVMTQTPLSLPVTPGQPASISCKSSQSLLDSDGKTYLNWLLQKPGQSPQSLIYLVSKLDSGVPDRFSGSGSGTDFTLKISRVEAEDVGVYYCWQGTHFPQTFGQGTKVEIK
VH 2: EVQLVQSGAEVKKPGASVKVSCKASGYTFTNYYIHWVRQAPGQGLEWIGWIYPGDGNTKYNEKFKGRATLTADTSTSTAYLELSSLRSEDTAVYYCARDSYSNYYFDYWGQGTLVTVSS
VL 2: DIVMTQSPDSLAVSLGERATINCKSSQSLLNSRTRKNYLAWYQQKPGQPPKLLIYWASTRESGVPDRFSGSGSGTDFTLTISSLQAEDVAVYYCTQSFILRTFGQGTKVEIK
notes: also called CD79b.A7.v14/40G5c K&H
Regarding B6, it took 0.22 µg/mL to reach a half-maximal effect in the assay with human CD79b [7] (EC50).

B7: CD79b.A7.v15 (antibody, V domains shown)
VH: EVQLVQSGAEVKKPGASVKVSCKASGYTFTTYWMNWVRQAPGQGLEWIGMIDPSDSETHYNQMFKDRATLTVDTSTSTAYLELSSLRSEDTAVYYCSRSLAFWGQGTLVTVSS
VL: DVVMTQTPLSLPVTPGQPASISCKSSQSLLDSDGKTYLNWLLQKPGQSPQSLIYLVSKLDSGVPDRFSGSGSGTDFTLKISRVEAEDVGVYYCWQGTHFPQTFGQGTKVEIK
notes: VH1c + VL5; assessed as IgG
On to B7, for which the Kd in assay [6] was found to be 5 nM.

B8: CD79b.A7.v18 (antibody, V domains shown)
VH: EVQLVQSGAEVKKPGASVKVSCKASGYTFTTYWMNWVRQAPGQGLEWIGMIDPSDSETHYNQMFKDRATLTVDKSTSTAYLELSSLRSEDTAVYYCSRSLAFWGQGTLVTVSS
VL: DIVMTQTPLSLPVTPGQPASISCKSSQSLLDSDGKTYLNWLLQKPGQSPQSLIYLVSKLDSGVPDRFSGSGSGTDFTLKISRVEAEDVGVYYCWQGTHFPQTFGQGTKVEIK
notes: VH1d + VL4; assessed as IgG
In the case of B8, the Kd in assay [6] is 4 nM.

B9: CD79b.A7.v19 (antibody, V domains shown)
VH: EVQLVQSGAEVKKPGASVKVSCKASGYTFTTYWMNWVRQAPGQGLEWIGMIDPSDSETHYNQMFKDRATLTVDKSTSTAYLELSSLRSEDTAVYYCSRSLAFWGQGTLVTVSS
VL: DVVMTQTPLSLPVTPGQPASISCKSSQSLLDSDGKTYLNWLLQKPGQSPQSLIYLVSKLDSGVPDRFSGSGSGTDFTLKISRVEAEDVGVYYCWQGTHFPQTFGQGTKVEIK
notes: VH1d + VL5; assessed as IgG
Turning to B9, the Kd in assay [6] was found to be 4 nM.

B10: CD79b.A7.v20 (antibody, V domains shown)
VH: EVQLVQSGAEVKKPGASVKVSCKASGYTFTTYWMNWVRQAPGQGLEWIGMIDPSDSETHYNQMFKDRATITVDTSTSTAYLELSSLRSEDTAVYYCSRSLAFWGQGTLVTVSS
VL: DIVMTQTPLSLPVTPGQPASISCKSSQSLLDSDGKTYLNWLLQKPGQSPQSLIYLVSKLDSGVPDRFSGSGSGTDFTLKISRVEAEDVGVYYCWQGTHFPQTFGQGTKVEIK
notes: VH1e + VL4; assessed as IgG
For the molecule B10, the Kd in assay [6] worked out at 8 nM.

B11: CD79b.A7.v21 (antibody, V domains shown)
VH: EVQLVQSGAEVKKPGASVKVSCKASGYTFTTYWMNWVRQAPGQGLEWIGMIDPSDSETHYNQMFKDRVTLTVDTSTSTAYLELSSLRSEDTAVYYCSRSLAFWGQGTLVTVSS
VL: DIVMTQTPLSLPVTPGQPASISCKSSQSLLDSDGKTYLNWLLQKPGQSPQSLIYLVSKLDSGVPDRFSGSGSGTDFTLKISRVEAEDVGVYYCWQGTHFPQTFGQGTKVEIK
notes: VH1f + VL4; assessed as IgG
With B11, the Kd in assay [6] stood at 8 nM.
